This assay has as its target Encapsulin–SpyTag (Myxococcus xanthus | Streptococcus pyogenes) (UniProt Q1D6H4). In words: reducing SDS-PAGE + SEC.

Sequence of Encapsulin–SpyTag (Myxococcus xanthus | Streptococcus pyogenes) (Q1D6H4 1-287, tags left off): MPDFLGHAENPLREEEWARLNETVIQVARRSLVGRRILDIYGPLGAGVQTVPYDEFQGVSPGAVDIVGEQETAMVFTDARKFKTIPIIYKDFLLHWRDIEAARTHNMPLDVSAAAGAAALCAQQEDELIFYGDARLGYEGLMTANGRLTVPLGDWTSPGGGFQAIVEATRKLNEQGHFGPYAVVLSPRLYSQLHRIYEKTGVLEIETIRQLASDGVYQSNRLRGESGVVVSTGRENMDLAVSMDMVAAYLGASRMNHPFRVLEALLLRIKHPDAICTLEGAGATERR

On to “mRBD–SpyCatcher (from UniProt P0DTC2 332-532)”, for which the per cent conjugation worked out at 90 per cent.
